The values that follow come from a protein production outcome set (Wang et al. 2014).

The nature of this data set: label from the status in PepcDB records.
For “MHVISTSKKTVLSDFADLETKSEYVHQNAEPTDFQFNGQRRVFVEVDKMAGLAVMRIKEKDGKTPEIQRVRKLTIDNAFCVACAKQSLEEIAVGQSGCVKLYNFRTAQLIHRFPADPQRSTVLYMDYNNTDEYIAAVRDGGDISILGTKTKQKTNTFTIDGDSTLVRFHPSKRFHLSIASYKGAVTVYDVQGMRKIFHASEAHSAPCRDISMCTSQPALLVSVGYDCKINIFDIRRNRAQASTDRLTYSHPLSTVALSECGTYLCAGNLKGELIAYDMRSTKAPLAVRSVHDAAVTRVAFVPVPSGDNQQNGSLNSSENATGLATEAPRVERAPSDELRKSIAANLLSTQNQLTSLGYGVSTPTIVRRDSFCEFLDAQGPRAVDRMSTRLGASYRDSFDWETLNRKPQPYETANRQSLCPPVASGPSSVDNSVNSSTTESLQQTLSGPLKDRSNISGDGKLMKIAETDELCEEQSANISVASSTGGGSDKENPPPVDAEMKRRLRLLSASRNSTPHHANITPQSSNPLLKPQQLLAKSSSGLSAQMDADWRKEFSELRDFVDQRCEKVERELEYVTFSNQRLLANKMTNYMDQQVENTREIRDALALLLQGDSFMREFSRLQNENEMLKAKLKFYQEQEQTESCGE”, the protein production entry is reported as “failed”.

As to “MGMIGYFAEIDSEKINQLLESTEKPLMDNIHDTLSGLRRLDIDKRWDFLHFGLTGTSAFDPAKNDPLSRAVLGEHSLEDGIDGFLGLTWNQELAATIDRLESLDRNELRKQFSIKRLNEMEIYPGVTFSEELEGQLFASIMLDMEKLISAYRRMLRQGNHALTVIVG”, the protein production result was “not failed”. As for “MPSPARTLLLAFVSAWFLLGGLGHFVFTDFFVGIVPPYVPWPLAAVWVSGVFELLGAAALLVPAWRRLAACGLFILTLCVTPANLYMWQHPDLFPSFPPTLLAARLALQAFLLGCILALMLARDEAPLARR”, the entry is “failed”; as for “MDFVEFWSQLIRNVRWRRACVLALIVLTLYLASSMMSIILLTFIFTFLVTRLVRAVRRWVKIPPTIIVLVVYALVILGIYFAVSIYLPQLIKQTFLTFESVYRFYQNPSHDTNQVLTWVTSYFQESDILKQLKGGISVVFQYITNIGNMGLTFFLSFILSFFFTIEDHQMRVFTKRFLTSTFGWFFQDVHFFAKKFVNSFGVVLEAQFLIAIVNTVITVTFMAILKMPQLISLGLMIFILSLIPVAGVIISVVPLSLIAYSVGGLRYVVYMLLMILVVHALEAYVLNPKFMSSRTELPIFYTFVVLLVSERLFGVWGLIVGVPIFNFILDIIGVKPVHRPRPNINLKKTITFHPDSENKR”, “failed”. The result for “MKVLLVLTDAYSDCEKAITYAVNFSEKLGAELDILAVLEDVYNLERANVTFGLPFPPEIKEESKKRIERRLREVWEKLTGSTEIPGVEYRIGPLSEEVKKFVEGKGYELVVWACYPSAYLCKVIDGLNLASLIVK” reads “not failed”; that for “MMLDALQANGLMQILLLTLMAGLAMPVGAALASVERIHPRWLETEVRHSVIAFGGGALLAAVALVLVPEGTANLPMVGIVVCFAGGGISFMLLDRWLAANGTPASQLVAMLSDFVPEAMALGATFSVSSEGGILLAGIIALQNIPEGFNSYRELVDATHYRGLKIVGALALMALLGPVAGALGYFLLSDAPSVVSGIMLFAAGGILYIIFQDIAPQVRLKKHWAPPLGALAGFLLGVMGEVALSG”, “failed”.

On to “MTTFTGHLTDAQAQRLVDGTLLEAEADEVLAHAGDCAECQALTESYRVLGDALGEALGALEVPELPRDFTAGVLSRIDARERAVRRERRFAAAILAAVLVAIGVTVVVAGAGTWAPAASRLAGGLGSAGEVLRLGAGLAGTLLSALRFPLALACTALAVPLLFALSRLIPSARAELA”, for which the protein production entry is recorded as “failed”. The result for “MSGFDLIIFDCDGVLVDSEIIAAQVESRLLTEAGYPISVEEMGERFAGMTWKNILLQVESEASIPLSASLLDKSEKLLDMRLERDVKIIDGVKFALSRLTTPRCICSNSSSHRLDMMLTKVGLKPYFAPHIYSAKDLGADRVKPKPDIFLHGAAQFGVSPDRVVVVEDSVHGIHGARAAGMRVIGFTGASHTYPSHADRLTDAGAETVISRMQDLPAVIAAMAEWEGAF” reads “not failed”; that for “MIYFTGDTHFADPRVLRIDRRPFPDMASHDVTLIRNWNEIVDAQDDIWHLGDFMSFRGGDCDQLLSMLNGRKHLIIGNNDPSTTTEATGWASVQHYSEMTLDDHLLILCHYPFRTWNKMGRKSINLHGHSHGRLKPLPRQYDVGVDAQRLRPVSLQTLLSTKPES”, “failed”; that for “MMNTITNIVSYLPYLFAWFLLGYMGIVVLVYTGMLLLSVVQLKREQKLNKQEVYDDYLELTYTKPVSILVPAYNEETGIIETVRSLLSLKYPQTEIVVVNDGSTDQTLEVIIEHFQMVKVGKVIRKQIETEPIKGVYQSTIFPHLLLVDKSNGGKADALNAGLNVSKYPYFCSIDGDSILETDALLKVMKPIVTSRDDEDEVIASGGNVRIANGSDIQMGSVLSVQLAKNPLVVMQVIEYLRAFLMGRIGLSRHNMVLIISGAFSVFAKKWVMEAGGYSKKTVGEDMELVVRLHRLVKEKRLKKRITFVPDPVCWTEAPATFRVLQRQRSRWHRGLMESLWLHRGMTFNPKYGLVGTASIPYFWIVEFFGPVVELMGYLYIVFAFFFGGLYVEFALALFLLFVLYGTVFSMTAVILEGWSLKRYPKVSDMSRLMIFSLFEALWYRPLTVLWRFGAIIEALFRSKAWGEMTRKGLTKAEQKAS”, “failed”. The result for “MAKGYWIAQVDVRDSERYKDYVSTAKPAFERFGANFLARGGSVTELEGTARARNVVIEFPSVQHAIDCYNSPEYQAAAKIRQEVADAEMMIVEGI” reads “not failed”; that for “MDDGTGAKRTKATVLQRVSSVLNADAHDATALDGGEVGSVYRVSFHDRPDVAVKVDDSPLGIEAAMLQSLDRDTPLPVPEVLHVEPELLVLSFIRGDGRFDERAERDLARHVAALHDTSADVFGFPFDTLSGPFSQSNPWTDSWIDFFRAQRLLPFATAARNEGALPAGEFDRVQRLAETLDARLVEPATPSLLHGDIHPGNAVVADGTVRAVLDPAIYFGHAEVDLAYVDRLDSIGAAFYDEYRQHRDISAGYFEERRDVYVAFHALENVRFFGEDELPRLERALDRLGM”, “failed”; that for “MQVEREENRKEVYEMKKETTGSKKVENGMEQEILNGQQPHWEKVFSNTCSRFGDEPSYPARKAAAIFEKEGKKKILELGGGQGRDTCFFASRGFSVHSLDYTESGTKAMKEKAEESGFGKYVTALRHDARNPLPFEAETFDACYSHMLYCMALTTDELEFLCKEIKRVLKPGGINIYTARHTGDAHYGTGTHRGEDMYEIAGGFIVHFFSREKVENLAKEYGSFELEEFEEGELPRKLYMVTMRK”, “failed”. Take “MIKEQSFEWLLEGCHRIADVAVAYYPNYAYACSAVKALRRSIAEHACLLKDLTDQGYTARTAHLTPVQIGILLSYWGMPDHVKDMTVKNPYLLVSKKYAK”: the protein production entry is recorded as “failed”. As for “MSALPSYTQNGQTITFAFAQPLQLTIVTPEIIRVFINRGEQGESYAIEGHKIQATDFTIESAGDHYIIRTSALTIHLDSERHLDTFDKDGNALITDYRGERIHLKGVDKVHERLVEAEGHSVTKAPTKSDQGYYEIIKSLAPDEYLYGLGDKTGYLNKRGFAYDNWNVDNPAPQLEILPNIYKSIPVMLGLKNGHPYGIFFDNTYQSHLDMGKESNHYYFYSAVQGNLDYYIIGGTTLKDIVTNYTYLTGRTPLPQKWTLGYQQSRWGYSASQEEVQAIADNLAKYDLPCDAIHFDVDYMDGYRVFTWDKDKYQGNPKKFITKLNQQGLKVIPIIDPGVKQDSDYHIYAEGLKKGYFVKSADGDVYINKVWPGNAAFPDFGRPEVRQWWANNGKFLTDLGVAGIWIDMNEPATFEGPIPDDVVFNDQDTPSTHKKMHNVYGHNMAKATYAGLKEQTGNRPFVITRAAYAGTQKYSTVWTGDNRSMWPHIQMMIPQLCNLGLSGFSFTGTDIGGFASDTTSELLTRWIEGAIFSPLLRNHAALGTRQQEPWAFGEPTLNIYRKYLKLRYRLIPYLYDLFAKETKTGLPIMRPVVLNYDQDPRVRDLNDEYMVGDDILVAPVVQKSQFKRLVYLPAGNWVDFWNGAEYAGNQDIVVDTPLDKLPLFVKQNTILPWGPAVSHISDEPLKAMTFRVFGTQGTYQHYQDNGRDFKYQSGEWNNYTITVDHNKVNVQLTHHGYQPVYQQITVELSDHVVKLTYDNDSSCYRE”, the entry is “failed”; as for “MPALDLIRPSVTAMRVIASVNADFARELKLPPHIRSLGLISADSDDVTYIAADEATKQAMVEVVYGRSLYAGAAHGPSPTAGEVLIMLGGPNPAEVRAGLDAMIAHIENGAAFQWANDAQDTAFLAHVVSRTGSYLSSTAGITLGDPMAYLVAPPLEATYGIDAALKSADVQLATYVPPPSETNYSAAFLTGSQAACKAACNAFTDAVLEIARNPIQRA”, “failed”; as for “YLSPMAHWLMPVAGGPNIEKMLNLLPALFSLYPEENNPQLLISKVYLPRQSQRYDPFYDLKNLAERWSEQLQRPIIPIPVCSTSIADALSDLAEMRECAAIVLGASREGLLKNVIHGNLPTQIASQTNTTVFIFRGPVDSPNEEAIVPPLAPDFGLDE”, “failed”.

In the case of “MSINIDSGQDSDQEHDDVMYPQVLPFVLIHAGCLAAIWSGVSWQAVAICVALYWLRMFGITAGYHRYFSHRAYATSRAFQFILAFLAQSSAQKSVLWWAAKHRHHHLHSDTAQDVHSPRHKGFVYSHLGWIFYRQHDATDLVKVSDLASYPELMWLHRLELLPAVVLAGLCFLIAGWSGLVVGFMWSTVVLYHATFCINSLAHVHGRRRYVTGDDSRNNWLLALLTMGEGWHNNHHAYQASARQGFYWYEVDLTYYALVALSWLGIVWDLKLPPRQVLRNEHRLGSRVVKQAAEQLAARFDPEHIALAIRTSIHETELSVRDALSLLQHRADLRLSSMPTREQLLAEAQRMFAKTISLDDIVDRAYELLHDSVGFLLATPALSANTNAKSGI”, the protein production entry is listed as “failed”. The result for “MTDIMARFVGYTGKVLPDDVTAKLQDLHKKETSQLADVIFTTMIENQRLAKELDRPSCQDTGVIQFLVECGANFPLIGELEALLRESVIKATIDSPLRHNSVETFDEYNTGKNVGKGTPTVFWEIVPNSDQCSIYTYMAGGGCSLPGKAMVLMPGAGYEGVTRFVLDVMTSYGLNACPPLLVGVGVATSVETAALLSKKALMRPIGSHNDNERAALLEKMLEDGINKIGLGPQGMSGNTSVMGVNIENTARHPSTIGVAVNVGCWSHRKGHIVFDKDLNYTITSHKGVAF” reads “failed”. In the case of “MADPIRIFIGSGEASRIERQVAIDSLQRMTDRPLAITAFNGTHNALEVLGEPPRPAPMSLRVKYWNATEFSLYRFLIPELCGYQGRAIYIDSDVVCLHDIGELFDTDLEGADFLAKAEAYPDRAGALWGLSVVLFDCDRCRFPLEQFIDELEAGVYDYRDLPCMGPRFLNKRPYQIGALDPRWNSFDFADRETRLIHYTDLKRQPWKRPGHPYGDLWFKAMQQALDSGILTDTEISQAIKRFNVRDDIREGNRPRWLTRQRLRSWLRQVKQQLRPVKV”, the protein production result is recorded as “failed”. As for “MAQTQLPHDAKAGPTKPEVRAVVRSKLALTDDDHFVEVGSCTGAVTIAAARDAGRVTALERKADRLETTRKNLAANGLADAVELRNAEAPAELPADADALFIGGSRNYDAVLDHAAETGVDRIVMNVSRLEVAGAATQAFRDRDILTEVVQFQVSHGYELAGATSFDSENPVYMLVGSASGDTEADR”, the entry is “failed”; as for “LSENTTPFGSVSQHDTQVNCQLQLNAANHLIVNEQTRNCFEYFLTQYGEKSLTQIDQDIKNYFTQSLPQPARDQAQDLWQRYLKYREELGNLKEPAIAKTDIAYYRAVFTSRQMLRQRFFSATEIAGLFGSEDIYNQYTLERMAILNNSKLSEIEKAKQLKALFDQLPQDWKANLEQLSKLDDLKQLTTSIKKNGGSAQELHDMRTNLVGHDATARLEQLDVERSNWKSNVTQYLDERQTILNSNMSDTAKQNAISALRSKNFTAPQDQIRVQAFESAKDQ”, “failed”.
